Measured values published in the supplement of paper PMC10126150.
± gives the standard deviation of the averaged measurements.

system: ATP; assay: switch fluorescence ratio, 500 uM ATP over buffer (Cy3 cluster intensity, sum of 5 cycles each) (fold (ratio)); higher = stronger signal-on switching upon ATP binding; sequences stand for … in TCGTCGGCAGCGTCAGATGTGTATAAGAGACAGTTTTTTTTTTTTTTTTTTTTTTTTT…TC; settings: aptamer strand: ATP DNA aptamer (quencher-CACCTGGGGGAGTATTGCGGAGGAAGG + anchor), 100 nM annealed; ATP concentration: 500 uM
Summary of the method: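 Cy3-labelled switching-strand clusters on a modified Illumina MiSeq flow-cell were annealed to 100 nM quencher-labelled ATP aptamer, imaged in selection buffer, then imaged after 15 min with 500 uM ATP at 22 °C. Five buffer/ATP cycles ran, with NaOH stripping and re-annealing between them. The fluorescence ratio is summed target-cycle over summed buffer-cycle Cy3 intensity per cluster, averaged per switch-domain sequence. Clusters outside 100-1000 RFU were excluded.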
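Further: ATP exposure 15 min at 22 °C before imaging.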

Sequence | switch fluorescence ratio
CGGGCAGGGC | 1.04 ± 0.019
CGGGCCCGTA | 0.961 ± 0.094
CGGGCCGACT | 1.01 ± 0.039
CGGGCCTCCG | 1.152 ± 0.0046
CGGGCGAATT | 0.982 ± 0.014
CGGGCGATGG | 1.08 ± 0.017
CGGGCGCACT | 1.06 ± 0.037
CGGGCGCTGA | 0.9837 ± 0.004
CGGGCGGCGG | 0.9921 ± 0.0076
CGGGCTCAAC | 1.033 ± 0.0071
CGGGCTGAAT | 0.987 ± 0.025
CGGGCTGGAA | 1.004 ± 0.0086
CGGGCTGTTT | 0.977 ± 0.013
CGGGCTTAAA | 1 ± 0.018
CGGGGAAGGA | 1.016 ± 0.006
CGGGGAAGGC | 1.13 ± 0.065
CGGGGAATAG | 1.16 ± 0.094
CGGGGAGGCG | 0.982 ± 0.079
CGGGGAGGGC | 1.04 ± 0.071
CGGGGAGTGT | 1 ± 0.043
CGGGGCATAT | 1.13 ± 0.085
CGGGGCCTAG | 1.01 ± 0.058
CGGGGCGCGA | 1.1 ± 0.049
CGGGGCGGCA | 0.998 ± 0.032
CGGGGCGTCA | 0.978 ± 0.032

Sequence | switch fluorescence ratio
CGGGGCTAGG | 0.992 ± 0.017
CGGGGCTCCT | 0.995 ± 0.036
CGGGGCTGGA | 0.984 ± 0.017
CGGGGGAAAC | 0.977 ± 0.015
CGGGGGACT | 1.61 ± 0.85
CGGGGGAGAG | 0.9847 ± 0.009
CGGGGGATAG | 1.06 ± 0.074
CGGGGGATCC | 1.13 ± 0.16
CGGGGGATCT | 1.01 ± 0.038
CGGGGGCAGT | 1.006 ± 0.0067
CGGGGGCTCC | 1.02 ± 0.021
CGGGGGCTT | 1.002 ± 0.0044
CGGGGGGATC | 1.02 ± 0.058
CGGGGGGCGG | 0.986 ± 0.032
CGGGGGGGGT | 1.01 ± 0.031
CGGGGGGTTC | 1 ± 0.019
CGGGGGTGGG | 1.01 ± 0.047
CGGGGGTTAT | 1.03 ± 0.063
CGGGGTAAGG | 0.988 ± 0.024
CGGGGTAGGT | 0.984 ± 0.027
CGGGGTCCTC | 1.01 ± 0.018
CGGGGTCGTG | 0.9904 ± 0.0035
CGGGGTGAAC | 0.994 ± 0.038
CGGGGTGCCG | 0.98847 ± 0.00081
CGGGGTGCGG | 1 ± 0.056

Sequence | switch fluorescence ratio
CGGGGTGGCT | 0.977 ± 0.16
CGGGGTGGTT | 1.01 ± 0.038
CGGGGTTAAG | 0.975 ± 0.025
CGGGGTTCTT | 1.02 ± 0.031
CGGGGTTGAC | 0.9924 ± 0.0098
CGGGGTTGCC | 0.955 ± 0.022
CGGGGTTTAG | 0.992 ± 0.051
CGGGTAAACG | 0.964 ± 0.079
CGGGTAAATA | 1.011 ± 0.0084
CGGGTAAGTC | 0.995 ± 0.01
CGGGTAATCT | 1.5 ± 0.61
CGGGTACCGC | 1.05 ± 0.053
CGGGTACGGT | 0.992 ± 0.022
CGGGTAGAAG | 0.971 ± 0.046
CGGGTAGGCT | 1.02 ± 0.057
CGGGTAGGTG | 1.03 ± 0.058
CGGGTAGTGC | 1.028 ± 0.0078
CGGGTAGTTG | 0.995 ± 0.014
CGGGTATGGT | 1 ± 0.027
CGGGTATTGC | 1.03 ± 0.011
CGGGTATTTC | 1.01 ± 0.014
CGGGTCGGCC | 0.997 ± 0.025
CGGGTCGGGA | 0.995 ± 0.041
CGGGTCGTGG | 0.996 ± 0.024
CGGGTCTTGT | 0.98864 ± 0.00032

Sequence | switch fluorescence ratio
CGGGTGAGGG | 1.017 ± 0.0065
CGGGTGATCG | 0.96 ± 0.043
CGGGTGGGAT | 1.006 ± 0.0035
CGGGTGGTAT | 0.991 ± 0.023
CGGGTGGTTA | 1.01 ± 0.022
CGGGTGTGTG | 0.981 ± 0.019
CGGGTTAATG | 0.986 ± 0.019
CGGGTTCCGA | 0.998 ± 0.024
CGGGTTCGAG | 0.959 ± 0.001
CGGGTTCTTT | 1.03 ± 0.11
CGGGTTGGAA | 0.9731 ± 0.0091
CGGGTTGGGT | 1.01 ± 0.049
CGGGTTTCAC | 1 ± 0.003
CGGGTTTGCG | 0.992 ± 0.036
CGGGTTTGGT | 1.01 ± 0.011
CGGGTTTTGG | 1.01 ± 0.034
CGGGTTTTTC | 0.972 ± 0.028
CGGGTTTTTG | 0.994 ± 0.03
CGGTAACAAA | 1.01 ± 0.019
CGGTACTCGA | 0.993 ± 0.015
CGGTAGCTTG | 1 ± 0.019
CGGTAGGATG | 0.971 ± 0.011
CGGTAGGATT | 1.04 ± 0.014
CGGTAGGTGC | 0.976 ± 0.063
CGGTATATGG | 0.962 ± 0.013

Sequence | switch fluorescence ratio
CGGTATGTGA | 0.985 ± 0.041
CGGTATTCTG | 1.01 ± 0.052
CGGTCAAAAA | 1.03 ± 0.033
CGGTCAGTAA | 1.03 ± 0.022
CGGTCATCTT | 0.9991 ± 0.0047
CGGTCCAGTA | 0.912 ± 0.048
CGGTCCCATT | 0.992 ± 0.047
CGGTCCGGTG | 1.04 ± 0.026
CGGTCCTGAA | 1.03 ± 0.002
CGGTCGAGGA | 0.988 ± 0.021
CGGTCGCTGG | 0.991 ± 0.026
CGGTCGTTGT | 1.02 ± 0.03
CGGTGAAAAT | 0.97 ± 0.027
CGGTGAATAT | 0.9712 ± 0.0087
CGGTGCACGG | 1.05 ± 0.027
CGGTGGATCA | 0.992 ± 0.017
CGGTGGGATG | 0.9784 ± 0.0072
CGGTGGGCCG | 1.05 ± 0.025
CGGTGGTTTG | 0.996 ± 0.026
CGGTGTAGCC | 1.02 ± 0.014
CGGTGTATTC | 0.988 ± 0.011
CGGTGTGAGG | 0.988 ± 0.031
CGGTGTGCCT | 0.966 ± 0.029
CGGTGTGTGC | 1.04 ± 0.026
CGGTGTTGTG | 0.986 ± 0.024

Sequence | switch fluorescence ratio
CGGTTACCTG | 0.9708 ± 0.0074
CGGTTAGTTC | 0.946 ± 0.023
CGGTTATTTA | 1.04 ± 0.011
CGGTTCGCGA | 1.03 ± 0.019
CGGTTCGTGG | 1.004 ± 0.0068
CGGTTGCATT | 1.04 ± 0.031
CGGTTGCGTT | 0.987 ± 0.035
CGGTTGCTAG | 0.997 ± 0.042
CGGTTGGAGC | 0.988 ± 0.042
CGGTTGGGCC | 0.993 ± 0.014
CGGTTGGGGG | 0.962 ± 0.033
CGGTTGGGTT | 0.99659 ± 6.3e-05
CGGTTGTCGA | 1.01 ± 0.023
CGGTTGTGCG | 0.969 ± 0.025
CGGTTTATGG | 0.943 ± 0.022
CGGTTTGACA | 0.9954 ± 0.0092
CGGTTTGCGT | 0.9748 ± 0.0029
CGGTTTGTCT | 0.986 ± 0.018
CGGTTTTGCG | 0.985 ± 0.024
CGGTTTTGGG | 0.977 ± 0.012
CGGTTTTTGC | 1.03 ± 0.058
CGGTTTTTTG | 0.964 ± 0.014
CGTAAAGGCC | 0.9465 ± 0.0012
CGTAAAGTAG | 1.01 ± 0.022
CGTAATATTA | 1.07 ± 0.01

Sequence | switch fluorescence ratio
CGTACAAAAG | 0.998 ± 0.03
CGTACGGCTC | 1.058 ± 0.0038
CGTACTAGAT | 0.9959 ± 0.0086
CGTACTGGAG | 1.01 ± 0.056
CGTAGAGGAA | 0.994 ± 0.03
CGTAGAGGGG | 0.9858 ± 0.0073
CGTAGCGTTT | 0.998 ± 0.04
CGTAGGAGGA | 0.98 ± 0.036
CGTAGGGGAA | 0.993 ± 0.02
CGTAGGGTCA | 0.9871 ± 0.0082
CGTAGGGTTA | 1.01 ± 0.025
CGTAGGTAAT | 1.01 ± 0.04
CGTAGTACGC | 1.12 ± 0.04
CGTAGTTTAG | 1.05 ± 0.027
CGTAGTTTAT | 1.07 ± 0.022
CGTAGTTTTG | 1.007 ± 0.0074
CGTATAAAAA | 0.971 ± 0.068
CGTATAGGGA | 1.015 ± 0.01
CGTATAGGTC | 0.999 ± 0.033
CGTATATGGG | 0.995 ± 0.022
CGTATCATGC | 0.985 ± 0.011
CGTATCCCGT | 0.974 ± 0.014
CGTATGAAGC | 0.972 ± 0.02
CGTATGCAAG | 0.967 ± 0.041
CGTATGTGGT | 0.97 ± 0.019

Sequence | switch fluorescence ratio
CGTATTCTGT | 0.9845 ± 0.0037
CGTATTGCGC | 0.971 ± 0.038
CGTATTTTAC | 1.08 ± 0.038
CGTATTTTGC | 1.03 ± 0.066
CGTCAGCGGC | 1.25 ± 0.053
CGTCAGGCAT | 1.17 ± 0.026
CGTCATCAGG | 1.042 ± 0.0069
CGTCATGTCT | 1 ± 0.065
CGTCATTGGG | 0.992 ± 0.045
CGTCCCAGCT | 1.12 ± 0.018
CGTCCGAGGT | 1.3 ± 0.048
CGTCCTGGGC | 1.0441 ± 0.00044
CGTCGCGGCA | 0.989 ± 0.026
CGTCGGGTGG | 0.9882 ± 0.0028
CGTCGTACGC | 0.981 ± 0.13
CGTCGTTCTC | 1.02 ± 0.07
CGTCTAAGTC | 1.01 ± 0.046
CGTCTAAGTG | 0.99 ± 0.019
CGTCTACATG | 1.03 ± 0.027
CGTCTATGGG | 1 ± 0.014
CGTCTGCGCG | 0.972 ± 0.081
CGTCTGGCGG | 1.01 ± 0.021
CGTCTTAGGG | 0.966 ± 0.016
CGTCTTTAGA | 0.987 ± 0.01
CGTGAAAGG | 0.9546 ± 0.0042
